From publication doi:10.1101/2022.04.19.488791 (bioRxiv, 2022) come the findings set out here.

Common to all, as to test: cryo-EM structure
Experiment [1] concerns the target T1, Slh1 helicase subunit of the ribosome quality control trigger complex RQT (wild type) (yeast, UniProt P53327 1-1967).
For experiment [2], the target named is Slh1-K316R, ATPase-deficient Slh1 subunit of K316R-RQT (yeast, UniProt P53327 1-1967, K316R).
Experiment [3] addresses T1, Slh1 helicase subunit of the ribosome …. This is another data set of the same source.

Where two headings read alike, the source gives them in different places.

T1 sequence (P53327 whole entry, one chain of several): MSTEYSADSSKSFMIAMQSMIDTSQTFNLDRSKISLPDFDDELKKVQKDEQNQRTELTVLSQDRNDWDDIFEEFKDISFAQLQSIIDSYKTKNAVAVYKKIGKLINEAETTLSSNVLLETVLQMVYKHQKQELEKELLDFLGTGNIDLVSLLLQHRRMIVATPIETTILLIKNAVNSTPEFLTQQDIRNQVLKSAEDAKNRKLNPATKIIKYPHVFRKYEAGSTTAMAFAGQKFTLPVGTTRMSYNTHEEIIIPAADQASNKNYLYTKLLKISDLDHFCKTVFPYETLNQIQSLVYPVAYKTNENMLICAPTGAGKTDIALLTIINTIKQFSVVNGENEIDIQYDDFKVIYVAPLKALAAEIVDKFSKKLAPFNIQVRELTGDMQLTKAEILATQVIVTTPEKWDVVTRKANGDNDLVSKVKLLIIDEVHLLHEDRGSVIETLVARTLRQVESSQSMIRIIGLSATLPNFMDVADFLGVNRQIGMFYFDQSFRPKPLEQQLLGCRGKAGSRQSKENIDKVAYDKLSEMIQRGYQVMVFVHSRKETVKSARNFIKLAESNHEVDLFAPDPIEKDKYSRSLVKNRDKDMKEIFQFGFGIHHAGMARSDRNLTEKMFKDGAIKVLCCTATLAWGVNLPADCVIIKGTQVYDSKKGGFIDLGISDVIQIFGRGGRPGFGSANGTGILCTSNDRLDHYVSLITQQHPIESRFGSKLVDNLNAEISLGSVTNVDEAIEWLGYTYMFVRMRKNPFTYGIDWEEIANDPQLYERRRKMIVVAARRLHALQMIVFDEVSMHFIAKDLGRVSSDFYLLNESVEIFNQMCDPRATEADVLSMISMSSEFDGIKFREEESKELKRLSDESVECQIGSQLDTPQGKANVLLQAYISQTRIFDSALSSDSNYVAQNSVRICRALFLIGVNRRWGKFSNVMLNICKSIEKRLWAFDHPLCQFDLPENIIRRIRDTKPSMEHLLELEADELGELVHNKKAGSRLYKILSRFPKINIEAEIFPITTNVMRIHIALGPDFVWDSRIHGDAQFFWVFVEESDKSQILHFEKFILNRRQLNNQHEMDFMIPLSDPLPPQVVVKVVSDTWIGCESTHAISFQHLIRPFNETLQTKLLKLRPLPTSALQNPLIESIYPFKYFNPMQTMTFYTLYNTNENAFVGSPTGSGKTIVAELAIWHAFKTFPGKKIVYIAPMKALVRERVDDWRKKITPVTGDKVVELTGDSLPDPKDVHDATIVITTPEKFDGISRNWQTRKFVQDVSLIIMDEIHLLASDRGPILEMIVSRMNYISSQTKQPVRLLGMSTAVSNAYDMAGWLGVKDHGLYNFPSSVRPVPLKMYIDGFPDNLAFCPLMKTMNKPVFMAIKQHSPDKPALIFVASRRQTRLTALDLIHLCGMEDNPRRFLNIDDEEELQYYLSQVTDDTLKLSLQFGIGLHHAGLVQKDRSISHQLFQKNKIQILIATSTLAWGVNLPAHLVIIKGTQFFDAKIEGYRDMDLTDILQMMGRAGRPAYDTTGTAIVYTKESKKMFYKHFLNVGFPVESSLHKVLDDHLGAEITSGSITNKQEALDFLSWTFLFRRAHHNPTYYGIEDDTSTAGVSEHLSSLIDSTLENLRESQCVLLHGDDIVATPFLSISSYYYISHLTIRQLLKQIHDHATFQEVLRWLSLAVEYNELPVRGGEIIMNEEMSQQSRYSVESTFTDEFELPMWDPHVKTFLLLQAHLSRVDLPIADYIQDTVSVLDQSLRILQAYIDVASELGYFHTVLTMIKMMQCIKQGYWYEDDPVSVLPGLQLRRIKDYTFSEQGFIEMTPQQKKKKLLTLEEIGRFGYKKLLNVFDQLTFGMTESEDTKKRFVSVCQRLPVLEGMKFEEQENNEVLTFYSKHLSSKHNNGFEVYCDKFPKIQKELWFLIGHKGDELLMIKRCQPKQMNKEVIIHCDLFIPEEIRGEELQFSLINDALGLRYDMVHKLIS
Sequence of Slh1-K316R, ATPase-deficient Slh1 subunit of K316R-RQT (P53327 whole entry K316R): as the sequence (P53327 whole entry, one chain of several) above, with K316R counted along it

B1: ribosomal protein uS3 of the 40S subunit (natural protein, UniProt P05750 1-240, looked up)
chain: MVALISKKRKLVADGVFYAELNEFFTRELAEEGYSGVEVRVTPTKTEVIIRATRTQDVLGENGRRINELTLLVQKRFKYAPGTIVLYAERVQDRGLSAVAQAESMKFKLLNGLAIRRAAYGVVRYVMESGAKGCEVVVSGKLRAARAKAMKFADGFLIHSGQPVNDFIDTATRHVLMRQGVLGIKVKIMRDPAKSRTGPKALPDAVTIIEPKEEEPILAPSVKDYRPAEETEAQAEPVEA
In the case of B1, the binding result in experiment [1] is “binds”.

B2: RACK1 (Asc1) of the 40S head (natural protein, UniProt P38011 1-319, looked up)
chain: MASNEVLVLRGTLEGHNGWVTSLATSAGQPNLLLSASRDKTLISWKLTGDDQKFGVPVRSFKGHSHIVQDCTLTADGAYALSASWDKTLRLWDVATGETYQRFVGHKSDVMSVDIDKKASMIISGSRDKTIKVWTIKGQCLATLLGHNDWVSQVRVVPNEKADDDSVTIISAGNDKMVKAWNLNQFQIEADFIGHNSNINTLTASPDGTLIASAGKDGEIMLWNLAAKKAMYTLSAQDEVFSLAFSPNRYWLAAATATGIKVFSLDPQYLVDDLRPEFAGYSKAAEPHAVSLAWSADGQTLFAGYTDNVIRVWQVMTAN
With B2, the binding result in experiment [1] is given as “binds”.

B3: Rqt4, zinc-finger containing subunit of RQT (natural protein, yeast, UniProt P36119 1-530, looked up)
chain: MTRKQAIDYAIKQVPQILPLEESDVKALCEQVLSTSSDDPEQIASKFLEFLGHEDLSFEFVMKFNELLNQNDKKEEKKTKNVHLEHTAPTSWKNESKQPTNNYINKKGDEKPKKLKDEKKSSTTRPTVQPSNQSTQSNPIKEKKEHRSKGKLQSLQEIDEAIKMLELRDSGSSKNCNCQGTRHPVFDIAPNCLHCGKVVCVIEGLNKGKCGHCHEQLISDNERTQMVEILNQEKNELNGSSSSLSNASNGANVPKKKTKTYKITSGMGKNLFAEQDKLFDFIERKRERERKRNEVLKLQEEKEESEAKERQASEHDHKAEENPELLAAQERLDRLLYFQDTSAERTKIIDNASDFDMNQEVGLWGSARERALALKKQQRNLRKWEKVEKERNGRREKYVVSMNIGSNGKVTMTEVPKDTENVIAGSDDDISDISDEEDISDLKHIHALKSEINTTKSLENLHLQSKAWDYERDKKQFDRPTYVKKNSDTAQQNRKTEEKAHDMQAYDLKSRVQVDQNADASVEQNILAVL
Turning to B3, the binding result in experiment [2] and in experiment [3] was “binds” throughout.

B4: Cue3, ubiquitin-binding CUE domain containing subunit of RQT (natural protein, yeast, UniProt P53137 1-624, looked up)
chain: MLSRYNRVIEINGGNADISLPIVKFPPFKLRAQLIEKDPVVWLHLIETYVTYFEYLMQGANVELLDESTLDHLRLFLRTYLHEIADEEGKLLSLGINHDVSEQLYLLKGWIFSLIKKCGLLHLQIFGDSLWNLIKVYVRRNPDSIRGLIDGSLKPRINTQRVQLDKSYQVQQHLKQLIESGKFKRIDLRCVEDLLSAKSMQPNKFAENFFTANWIEILEALWAKGQGRGHKEARELIIISLFSVSADRLLKITKELGISNFETLALYPLLGTMLINEGVHKRLPDLKSKLLFLNLGGLSMDEGDHMSYPTSSGTEVNEEQLSALMELFPQFSKYQLSQTLLAYDNNIELVTNKIFEDPTIIEAFSREPAEEEVEPVSDGDNASFTEELSILDRGDSSKNKELDKKIISEGVPDELRNKTLTRALKLLYEADEDERDDTYDEADVNRSDPSKRIGLQEDEESYDTKDDSNEVRQDHNYHIVEAYLWNLLKEDPKLFERSKRGTKVRKTMKEMTSWSDEKIEGWCRMLERSPTRARLLEKKFMFKGNSKTGKTSYVHNRDSQNDGNVVKEQAKQKKSENIKKHEPQSTEQKKRQHAKNEKRKGARANHNRKKGHDKKLARAGNNAI
As for B4, the binding result in experiment [2] and in experiment [3] was “binds” each time.

B5: ribosomal protein uS5 of the 40S subunit (natural protein, UniProt P25443 1-254, looked up)
chain: MSAPEAQQQKRGGFGGRNRGRPNRRGPRNTEEKGWVPVTKLGRLVKAGKITTIEEIFLHSLPVKEFQIIDTLLPGLQDEVMNIKPVQKQTRAGQRTRFKAVVVVGDSNGHVGLGIKTAKEVAGAIRAGIIIAKLSVIPIRRGYWGTNLGQPHSLATKTTGKCGSVTVRLIPAPRGSGIVASPAVKKLLQLAGVEDVYTQSNGKTRTLENTLKAAFVAIGNTYGFLTPNLWAEQPLPVSPLDIYSDEASAQKKRF
Regarding B5, the binding result in experiment [1] was “binds”.
